Test results published in patent US11529425B2, “Immunoconjugates comprising signal regulatory protein alpha” (DINGFU BIOTARGET CO., LTD., priority 2017, dated 2022).
“Also recorded” adds a separate entry of the source.

System: RBC
Experiment: Binding to fresh RBC diluted 2500 times, flow cytometry
Conditions: 20 μg ml^−1, FIG. 6f
Protocol: Similarly, fresh RBC cell was diluted 2500 times, then it was incubated with 20 μg ml^−1 isotype control (human IgG1), hu56di-SIRPα, hu56di-CV1, SIRPα-Fc IgG1 and AB6.12 IgG1, respectively. The results were shown in FIG. 6f, in which serial numbers of 1, 2, 3, 4 and 5 correspond to isotype control, hu56di-SIRPα, hu56di-CV1, SIRPα-Fc IgG1 and AB6.12 IgG1.

B1: hu56di-CV1: heterodimer of hu56di-Fc9 and CV1-Fc6, Group 14 (protein)
chain 1: QVQLVESGGGLVQPGGSLRLSCAASGKMSSRRCMAWFRQAPGKERERVAKLLTTSGSTYLADSVKGRFTISRDNSKNTVYLQMNSLRAEDTAVYYCAADSFEDPTCTLVTSSGAFQYWGQGTLVTVSSGAPQVQLVESGGGLVQPGGSLRLSCAASGKMSSRRCMAWFRQAPGKERERVAKLLTTSGSTYLADSVKGRFTISRDNSKNTVYLQMNSLRAEDTAVYYCAADSFEDPTCTLVTSSGAFQYWGQGTLVTVSSEPKSSDKTHTCPPCPAPELLGGPSVFLFPPKPKDTLMISRTPEVTCVVVDVSHEDPEVKFNWYVDGVEVHNAKTKPREEQYNSTYRVVSVLTVLHQDWLNGKEYKCKVSNKALPAPIEKTISKAKGQPREPQVYTLPPCRDELTKNQVSLWCLVKGFYPSDIAVEWESNGQPENNYKTTPPVLDSDGSFFLYSALTVDKSRWQQGNVFSCSVMHEALHNHYTQKSLSLSPGK
chain 2: EEELQIIQPDKSVLVAAGETATLRCTITSLFPVGPIQWFRGAGPGRVLIYNQRQGPFPRVTTVSDTTKRNNMDFSIRIGNITPADAGTYYCIKFRKGSPDDVEFKSGAGTELSVRAKPSGGGGSDKTHTCPPCPAPELLGGPSVFLFPPKPKDTLMISRTPEVTCVVVDVSHEDPEVKFNWYVDGVEVHNAKTKPREEQYNSTYRVVSVLTVLHQDWLNGKEYKCKVSNKALPAPIEKTISKAKGQPREPQVYTLPPSRDELTKNQVSLSCGVKGFYPSDIAVEWESNGQPENNYKTTPPVLDSDGSFKLASKLTVDKSRWQQGNVFSCSVMHEALHNHYTQKSLSLSPGK
binding to RBC: stronger binding to RBC than hu56di-SIRPα; also recorded: comparable binding to RBC with AB6.12 IgG1
